The source of these data is paper PMC4731781, “The β2 clamp in the Mycobacterium tuberculosis DNA polymerase III αβ2ε replicase promotes polymerization and reduces exonuclease activity” (Scientific Reports, 2016).

For assay [1], the target named is beta2 clamp (Escherichia coli) (UniProt P0A988). Conditions: cited from earlier work.
Assay [2] shares this target. The following applies: cited from earlier work. This is another data set of the same source.
Assay [3] concerns the target T1, Mtb DNA Pol III α subunit (DnaE1), purified recombinant (Mycobacterium tuberculosis, UniProt P9WNT7 1-1184).
T1 construct: also called Mtb α; MtbDnaE1; source: E. coli, purified
T1 sequence: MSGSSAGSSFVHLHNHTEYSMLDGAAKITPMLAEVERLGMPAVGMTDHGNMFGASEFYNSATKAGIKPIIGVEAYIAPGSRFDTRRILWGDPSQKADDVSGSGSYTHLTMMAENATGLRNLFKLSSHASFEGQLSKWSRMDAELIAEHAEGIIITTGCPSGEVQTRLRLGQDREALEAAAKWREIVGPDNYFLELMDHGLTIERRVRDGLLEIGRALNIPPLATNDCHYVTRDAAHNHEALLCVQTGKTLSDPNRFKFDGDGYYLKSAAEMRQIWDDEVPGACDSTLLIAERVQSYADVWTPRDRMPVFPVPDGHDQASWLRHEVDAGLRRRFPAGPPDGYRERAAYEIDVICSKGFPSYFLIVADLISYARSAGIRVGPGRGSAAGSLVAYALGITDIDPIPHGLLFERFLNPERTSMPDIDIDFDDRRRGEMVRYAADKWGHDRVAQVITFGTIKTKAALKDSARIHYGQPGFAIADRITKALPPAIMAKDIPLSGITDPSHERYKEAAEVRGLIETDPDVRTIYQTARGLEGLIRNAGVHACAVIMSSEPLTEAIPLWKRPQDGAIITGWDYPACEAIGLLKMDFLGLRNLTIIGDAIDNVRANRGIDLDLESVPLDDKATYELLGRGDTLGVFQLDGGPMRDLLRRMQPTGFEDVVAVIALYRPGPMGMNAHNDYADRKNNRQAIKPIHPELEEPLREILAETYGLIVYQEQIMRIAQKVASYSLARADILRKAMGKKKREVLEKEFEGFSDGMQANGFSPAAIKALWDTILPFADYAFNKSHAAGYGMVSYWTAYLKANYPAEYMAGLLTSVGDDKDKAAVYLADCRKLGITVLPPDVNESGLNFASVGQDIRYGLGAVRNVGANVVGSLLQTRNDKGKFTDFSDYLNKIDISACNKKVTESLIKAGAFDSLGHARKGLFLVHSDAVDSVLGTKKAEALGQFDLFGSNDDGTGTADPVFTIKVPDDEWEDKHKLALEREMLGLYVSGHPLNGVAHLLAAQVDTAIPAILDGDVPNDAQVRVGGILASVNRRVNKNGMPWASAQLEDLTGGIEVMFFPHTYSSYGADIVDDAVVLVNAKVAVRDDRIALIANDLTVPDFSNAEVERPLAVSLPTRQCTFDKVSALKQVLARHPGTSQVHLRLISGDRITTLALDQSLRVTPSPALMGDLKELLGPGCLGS
Nature of the assay: SPR; BIAcore3000, β subunit amine-coupled to the chip (about 1800 RU); α injected at 0.01, 0.1 and 1 μM in 50 mM HEPES pH 7.5, 100 mM NaCl, 0.005% Tween20, 30 μl/min; global fit to a 1:1 Langmuir model. The following applies: both partners purified. A general note: In SPR one partner is held on a chip, and binding of the other changes the refractive index at the surface.

In assay [4] the target is T2, Mtb DNA Pol III δ subunit (HolA) (Mycobacterium tuberculosis, UniProt P71730 1-322).
T2 sequence: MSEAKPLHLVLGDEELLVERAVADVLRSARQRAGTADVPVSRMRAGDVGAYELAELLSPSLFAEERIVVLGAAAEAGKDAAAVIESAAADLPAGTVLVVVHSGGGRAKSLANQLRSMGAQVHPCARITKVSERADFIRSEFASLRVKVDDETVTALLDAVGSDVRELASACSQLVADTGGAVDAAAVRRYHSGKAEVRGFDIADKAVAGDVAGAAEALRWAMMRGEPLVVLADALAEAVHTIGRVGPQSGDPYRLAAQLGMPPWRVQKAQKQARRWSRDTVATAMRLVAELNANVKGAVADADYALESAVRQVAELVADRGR
The experiment in a line: co-purification, densitometry of an SDS-PAGE gel. The following applies: partners not purified.

Assay [5] concerns the target T3, Mtb DNA Pol III δ’ subunit (HolB) (Mycobacterium tuberculosis, UniProt Q7D554 1-404).
T3 sequence: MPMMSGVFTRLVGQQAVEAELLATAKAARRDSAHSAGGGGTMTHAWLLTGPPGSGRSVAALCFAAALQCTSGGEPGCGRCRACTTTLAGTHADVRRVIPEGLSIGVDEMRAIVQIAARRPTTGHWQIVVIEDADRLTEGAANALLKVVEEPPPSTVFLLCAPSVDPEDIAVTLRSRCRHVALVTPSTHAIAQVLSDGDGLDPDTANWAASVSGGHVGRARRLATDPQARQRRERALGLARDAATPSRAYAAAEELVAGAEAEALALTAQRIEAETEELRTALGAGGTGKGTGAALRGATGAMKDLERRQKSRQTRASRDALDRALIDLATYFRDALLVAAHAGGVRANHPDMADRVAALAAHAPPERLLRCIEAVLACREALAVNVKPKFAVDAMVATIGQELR
The experiment in a line: co-purification, densitometry of an SDS-PAGE gel. The following applies: partners not purified.

Like-named read-outs stand apart in the source and are kept apart here.

Sequence of beta2 clamp (Escherichia coli) (P0A988 whole entry): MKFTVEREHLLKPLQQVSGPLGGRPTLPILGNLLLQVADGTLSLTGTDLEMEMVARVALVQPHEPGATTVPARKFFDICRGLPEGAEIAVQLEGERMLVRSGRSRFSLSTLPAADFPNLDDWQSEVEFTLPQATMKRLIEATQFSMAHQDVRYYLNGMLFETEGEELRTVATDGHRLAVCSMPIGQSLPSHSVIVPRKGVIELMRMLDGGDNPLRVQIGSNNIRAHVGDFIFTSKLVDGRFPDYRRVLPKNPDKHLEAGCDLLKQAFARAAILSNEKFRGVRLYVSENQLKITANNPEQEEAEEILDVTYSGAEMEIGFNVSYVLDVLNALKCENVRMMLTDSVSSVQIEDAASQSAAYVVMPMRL

In general, Kd refers to the concentration at which binding is half-saturated. On to “DNA polymerase III alpha (from UniProt P10443)”, for which the dissociation constant Kd in assay [1] is 1200 nM.

Take “DNA polymerase III epsilon (from UniProt P03007)”: the Kd in assay [2] was 200000 nM.

B1: Mtb DNA Pol III β2 clamp (DnaN), purified recombinant (natural protein)
chain: MDAATTRVGLTDLTFRLLRESFADAVSWVAKNLPARPAVPVLSGVLLTGSDNGLTISGFDYEVSAEAQVGAEIVSPGSVLVSGRLLSDITRALPNKPVDVHVEGNRVALTCGNARFSLPTMPVEDYPTLPTLPEETGLLPAELFAEAISQVAIAAGRDDTLPMLTGIRVEILGETVVLAATDRFRLAVRELKWSASSPDIEAAVLVPAKTLAEAAKAGIGGSDVRLSLGTGPGVGKDGLLGISGNGKRSTTRLLDAEFPKFRQLLPTEHTAVATMDVAELIEAIKLVALVADRGAQVRMEFADGSVRLSAGADDVGRAEEDLVVDYAGEPLTIAFNPTYLTDGLSSLRSERVSFGFTTAGKPALLRPVSGDDRPVAGLNGNGPFPAVSTDYVYLLMPVRLPG
notes: DNA polymerase III β subunit (sliding clamp) DnaN of Mycobacterium tuberculosis; also called β subunit; β clamp
As to B1, in assay [3], the Kd is 10.9 nM.

B2: Mtb DNA Pol III τ subunit (DnaZX) (natural protein)
chain: MALYRKYRPASFAEVVGQEHVTAPLSVALDAGRINHAYLFSGPRGCGKTSSARILARSLNCAQGPTANPCGVCESCVSLAPNAPGSIDVVELDAASHGGVDDTRELRDRAFYAPVQSRYRVFIVDEAHMVTTAGFNALLKIVEEPPEHLIFIFATTEPEKVLPTIRSRTHHYPFRLLPPRTMRALLARICEQEGVVVDDAVYPLVIRAGGGSPRDTLSVLDQLLAGAADTHVTYTRALGLLGVTDVALIDDAVDALAACDAAALFGAIESVIDGGHDPRRFATDLLERFRDLIVLQSVPDAASRGVVDAPEDALDRMREQAARIGRATLTRYAEVVQAGLGEMRGATAPRLLLEVVCARLLLPSASDAESALLQRVERIETRLDMSIPAPQAVPRPSAAAAEPKHQPAREPRPVLAPTPASSEPTVAAVRSMWPTVRDKVRLRSRTTEVMLAGATVRALEDNTLVLTHESAPLARRLSEQRNADVLAEALKDALGVNWRVRCETGEPAAAASPVGGGANVATAKAVNPAPTANSTQRDEEEHMLAEAGRGDPSPRRDPEEVALELLQNELGARRIDNA
notes: Three copies in the clamp loader τ3δδ’ by densitometry
In the case of B2, the results for the “stoichiometry N” value in assay [4] and in assay [5] were 3 τ per δ and 3 τ per δ’, respectively.
